# Data from article PMC5584224, “Peptide-based PET imaging of the tumor restricted IL13RA2 biomarker” (Oncotarget, 2017).
# “And” between values parts separate entries of the source, which are not always exact repeats. Equal values may be shown once. Non-standard residues stand in square brackets, D forms with d. Residues, ends and D or L forms follow the SMILES beside them. *: point of attachment. Biotin = O=C1N[C@H]2[C@H](CS[C@H]2CCCCC(=O)*)N1; Ahx = NCCCCCC(=O)O
# Columns and labels:
# [1] = cited from earlier work
# Description: Pep-1L was conjugated with NOTA, a chelator that can form a six-coordinate complex with Cu-64 that results in a high stability constant (log K=21.6) by CPC scientific Inc.. […] The Cu-64 radiolabeling conditions for Pep-1L were well optimized in this work for high radiochemical purity of >98%, without any need for additional purification methodologies with a specific activity of 32-35 MBq/μg (Figure 1).
# [2] = test system: IL13RA2-expressing G48 tumors; assay: Biodistribution in mice bearing IL13RA2-expressing G48 xenografts; format: in vivo; conditions: G48 tumor bearing mice, 24 h post injection, non-blockade vs blockade group
# Protocol: (§1) Biodistribution studies with [^64Cu]Pep-1L were performed in mice bearing IL13RA2-expressing G48 tumors (n=4) to confirm in vivo binding. […] The uptake ratios for target to non-target (tumor: muscle) increased from 3.7 to 6.0 from 4 h to 24 h (Figure 4B).
# (§2) Figure 4 In vivo properties of [^64Cu]Pep-1L (A) biodistribution and (B) tumor-to-muscle (target: nontarget) ratio of [^64Cu]Pep-1L in mice bearing IL13RA2-expressing tumor xenografts 4h and 24h post injection (n=4) with p values ≤ .05 considered statistically significant.
# (§3) Athymic nude mice (Taconic Farms) were housed in a pathogen-free facility of the Animal Research Program at Wake Forest School of Medicine under a 12:12-h light/dark cycle and fed ad libitum. All animal experiments were conducted under IACUC approved protocols in compliance with the guidelines for the care and use of research animals established by Wake Forest Medical School Animal Studies Committee. IL13RA2-expressing G48 tumors cells (1 × 10^5 cells suspended in 10 μL) were implanted in the left flank of nude mice (25-30 g) as described previously. The presence of viable tumors was confirmed through bioluminescence imaging. Standard biodistribution studies were performed in the same nude mice with flank tumors (n=4) at 10-15 days after tumor implantation. Mice were anesthetized with 1% isoflurane-oxygen and approximately 3.7- 4.6 MBq of [^64Cu]Pep-1L was administered via tail vein injection. […] Peptide concentration of 15 mg/kg was used as the blocking agent and was intravenously injected via tail vein 15 min prior to the radiotracer. The tumor and organs of interest were dissected and gamma counted using Wallac 1480 Wizard gamma counter (Perkin Elmer, Turku, Finland). The concentration of the radioactivity in the tumor and organs were expressed in percentage injected dose per gram (%ID/g) of radioactivity with p values ≤ .05 considered statistically significant and uptake ratio of tumor-to-muscle was calculated.
# [3] = as above; format: in vivo; conditions: athymic nude, mouse, in vivo, iv, total radioactivity
# Protocol: as §1, §2, §3
# in vivo = assay: in vivo; set-up: species or system mice; conditions: athymic nude, mouse, iv, total radioactivity, tumor uptake
# Protocol: (§4) 7 days after tumor cell implantations, mice were divided into induced and uninduced (control) groups (n=4/group). To induce hIL13RA2 expression, doxycycline was administered intraperitoneally (2.5 mg/mouse) every 12 hours for 2 days. After IL13RA2-induction, [^64Cu]Pep-1L was intravenously injected to mice bearing induced or control (uninduced) subcutaneous tumors and microPET/CT imaging was performed 4 h post intravenous injection. […] Other notable findings were that there was radiotracer accumulation in liver and kidney in both induced and control animals, which are primary organs for peptide clearance. […]
# (§5) B16F10 murine melanoma cell line was cultured in DMEM base media. […] Cell number was calculated using a hemocytometer and required number of B16F10 cells was suspended in DMEM media. […]
# (§6) Mice bearing subcutaneous tumors were grouped into two groups (n=4) and placed in an induction chamber containing ~2% isoflurane/oxygen then secured to a custom double bed for placement of tail vein catheters. […] Samples of tumor, blood, lung, liver, spleen, kidney, muscle and heart were harvested, weighed and then counted on the gamma counter with a standard dilution of the injectate. The percentage of the injected dose per gram of tissue (%ID/g) was calculated as described above with p values ≤ .05 considered statistically significant (n=4).
# [4] = test system: B16F10-Tet-hIL13RA2 tumors; assay: microPET/CT imaging, ROI analysis, in doxycycline-inducible B16F10-Tet-hIL13RA2 tumor model; format: in vivo, mice
# Protocol: as §4, §5, §6
# [5] = test system: IL13RA2-expressing G48 cells; assay: In vitro cell uptake assay with and without unlabeled Pep-1L blockade; format: cell-based, human
# Protocol: Previously, we reported that this cell line contains about 4,000,000 IL13RA2 binding sites.
# Figure 3 Cell uptake of [^64Cu]Pep-1L Uptake of [^64Cu]Pep-1L in IL13RA2-expressing G48 cells after 1, 3, and 4 h of exposure. […] The data were expressed as % injected dose (ID)/mg of protein present in each well with p values ≤ .005 considered statistically significant (n=6).
# The in vitro reactivity, binding affinity and specificity for [^64Cu]Pep-1L were determined using human GBM cell line G48, following previously reported methods. 1 × 10^5 cells were then seeded into each well of a 6-well culture. G48 cells were incubated overnight at 37°C with 5% CO2 in an incubator. […] The radioactivity was counted using the Wallac 1480 Wizard gamma counter (Perkin Elmer, Turku, Finland). […]
# The uptake data in each sample from each well and the standard counts for each condition were expressed as counts per minute (cpm) of activity and were decay corrected for elapsed time. The cpm values of each well were normalized to the amount of radioactivity added to each well and the protein concentration in the well and expressed as percent uptake relative to the control condition. The data were expressed as %ID/mg of protein present in each well with p values ≤ 0.005 considered statistically significant.
# in vitro = conditions: human, human serum
# Protocol: The in vitro serum stability of the radiotracer [^64Cu]Pep-1L in human serum was performed at different time points and was analyzed through radioTLC spotting (Figure 2).
# Figure 2 In vitro serum stability of [^64Cu]Pep-1L Reverse-phase C18 radio-TLC analysis of [^64Cu]Pep-1L over a 24 hour period post production.
# The in vitro serum stability of [^64Cu]Pep-1L was performed using human serum (Sigma Aldrich) following previously published methods [38, 48]. Approximately 0.037 MBq/10 μL of [^64Cu]Pep-1L was added to the serum vial, to a final volume of 100 μL and incubated at 37°C [35]. 1 μL of the sample mixture was removed and spotted on a reverse C18-TLC plate at 1 h, 2 h, 4 h, 18 h and 24 h after the radiotracer synthesis and the percentage of bound Cu-64 was determined through radioTLC analysis as mentioned above [48].
compound,measurement,setting,value
"O=C(O)CN1CCN(CC(=O)O)CCN(CC(=O)O)CC1 [NOTA, 1,4,7-triazacyclononane-1,4,7-triacetic acid]",stability constant (log K) of six-coordinate complex with Cu-64,[1],21.6
"CSCC[C@H](NC(=O)[C@H](CCC(=O)O)NC(=O)CNC(=O)[C@H](CS)NC(=O)[C@H](C)N)C(=O)NCC(=O)N[C@@H](Cc1c[nH]c2ccccc12)C(=O)N[C@H](C(=O)N[C@@H](CCCNC(=N)N)C(=O)N[C@@H](CS)C(=O)NCC(=O)NCC(=O)NCC(=O)N[C@@H](CO)C(=O)NCCCCCC(=O)N[C@@H](CCCCN)C(=O)N[C@@H](CCCCNC(=O)CCCC[C@@H]1SC[C@@H]2NC(=O)N[C@@H]21)C(N)=O)C(C)C [[^64Cu]Pep-1L, metal not drawn] (H-ACGEMGWVRCGGGS[Ahx]KK(Biotin)-NH2)",blockade of tumor uptake by pre-injected unlabeled peptide,[2],5 fold and 3 fold
same,tissue to tissue ratio at 4 h,[3],3.7
same,tissue to tissue ratio at 24 h,[3],6
same,tissue uptake at 24 h,"[3]; blood uptake, 24 h non-blockade",0.62 ± 0.579 %ID/g
same,tissue uptake at 4 h,"[3]; brain uptake, 4 h",~0.013 %ID/g
same,tissue uptake at 24 h,"[3]; brain uptake, 24 h",~0.009 %ID/g
same,tissue uptake at 24 h,"[3]; heart uptake, 24 h non-blockade",1.21 ± 1.01 %ID/g
same,tissue uptake at 24 h,"[3]; kidney uptake, 24 h non-blockade",17.4 ± 1.41 %ID/g
same,tissue uptake at 24 h,"[3]; liver uptake, 24 h non-blockade",9.86 ± 1.59 %ID/g
same,tissue uptake at 24 h,"[3]; lung uptake, 24 h non-blockade",3.58 ± 1.08 %ID/g
same,tissue uptake at 24 h,"[3]; muscle uptake, 24 h non-blockade",0.41 ± 0.038 %ID/g
same,tissue uptake at 24 h,"[3]; tumor uptake, 24 h non-blockade",2.43 ± 0.626 %ID/g
same,tissue uptake at 4 h,"[3]; nude mice with G48 flank tumors, 3.7-4.6 MBq i.v. tail vein, 4 h post injection, gamma counting, mean ± SD, n=4, read-out: tumor uptake, 4 h",1.38 ± 0.09 %ID/g
same,tissue uptake at 4 h,in vivo; doxycycline-induced tumors,14.1 ± 0.246 %ID/g
same,tissue uptake at 4 h,in vivo; non-induced tumors,4.179 ± 0.007 %ID/g
same,"tumor accumulation, doxycycline-induced vs non-induced (ROI analysis of microPET/CT)","[4]; athymic nude mice, 4.62-5.5 MBq i.v., 20 min scan 4 h post injection, doxycycline 2.5 mg/mouse i.p. every 12 h for 2 days, n=4/group",~ 3 fold
same,"binding of induced vs uninduced tumors (PET/CT and post-necropsy biodistribution, abstract)","[4]; summary of PET/CT and post-necropsy biodistribution, doxycycline pretreatment",3-4 fold
same,cell uptake in G48 cells under binding site blockade with unlabeled Pep-1L,"[5]; 0.0185 MBq/well, 37°C, 1, 3, 4 h, blocker 5 μM (50x excess) unlabeled peptide 15 min before tracer, gamma counting, %ID/mg protein",significantly inhibited
same,course of cell uptake over time,"[5]; 37°C, 1 to 4 h exposure",continued increase
same,"remaining at 24 h, 0.37 MBq/mL",in vitro,~90%
